Source: publication PMC11006873, “Fuzzy recognition by the prokaryotic transcription factor HigA2 from Vibrio cholerae” (Nature Communications, 2024)

Experiments:
[1] = target: HigA2Phd (Vibrio cholerae (globular domain); Phd IDR organism not stated) (UniProt Q9KMA5); experiment: ITC; settings: ITC: 20 mM sodium phosphate pH 7.0, 150 mM NaCl, 1 mM EDTA, 25 or 5 C; EMSA/footprint: 20 mM Tris pH 8, 200 mM NaCl; NMR: 20 mM sodium phosphate pH 6.8, 130 mM …
HigA2 [2] = target: T1, HigA2 (Vibrio cholerae, UniProt Q9KMA5); experiment: ITC; 25 C; ITC: 20 mM sodium phosphate pH 7.0, 150 mM NaCl, 1 mM EDTA, 25 or 5 C; EMSA/footprint: 20 mM Tris pH 8, 200 mM NaCl; NMR: 20 mM sodium phosphate pH 6.8, 130 mM; settings: protein: recombinant; tags: C-terminal His6, uncleavable; chain copies: 2
HigA2IDR = target: T2, HigA2IDR (Vibrio cholerae, UniProt Q9KMA5); experiment: as above; settings: tags: C-terminal extra W; chain copies: 2
T2 chain: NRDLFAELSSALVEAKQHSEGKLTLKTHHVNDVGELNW

HigA2ΔIDR [3] = target: T3, HigA2ΔIDR (Vibrio cholerae, UniProt Q9KMA5, del1-36); experiment: as above; settings: protein: recombinant; tags: C-terminal His6, uncleavable; chain copies: 2
[4] = target: the molecule itself; experiment: crystal structure; HigA2 and the 17 bp operator fragment Opr17 mixed 1:1.2, 250 uM complex; sitting drop vapor diffusion; 0.2 M sodium chloride, 0.1 M Na HEPES pH 7.5, 12% (w/v) PEG 8000
HigA2 [5] = target: T1, HigA2; experiment: X-ray crystallography; HigA2 dimer; residues 37-104 visible; ITC: 20 mM sodium phosphate pH 7.0, 150 mM NaCl, 1 mM EDTA, 25 or 5 C; EMSA/footprint: 20 mM Tris pH 8, 200 mM NaCl; NMR: 20 mM sodium phosphate pH 6.8, 130 mM; settings: protein: recombinant; tags: C-terminal His6, uncleavable; chain copies: 2; blunt
HigA2 [6] = target: T1, HigA2; experiment: ITC; 5 C; ITC: 20 mM sodium phosphate pH 7.0, 150 mM NaCl, 1 mM EDTA, 25 or 5 C; EMSA/footprint: 20 mM Tris pH 8, 200 mM NaCl; NMR: 20 mM sodium phosphate pH 6.8, 130 mM; settings: protein: recombinant; tags: C-terminal His6, uncleavable; chain copies: 2
HigA2Mut(14-25) = HigA2Mut(14-25) (Vibrio cholerae, UniProt Q9KMA5, L14S;V15S;E16A;A17T;K18A;Q19S;H20G;S21A;E22T;G23A;K24S;L25S); experiment: as above; settings: protein: recombinant; tags: C-terminal His6, uncleavable; chain copies: 2
HigA2ΔIDR [7] = target: T3, HigA2ΔIDR; experiment: as above; settings: protein: recombinant; tags: C-terminal His6, uncleavable; chain copies: 2
HigA2Mut(26-37) = HigA2Mut(26-37) (Vibrio cholerae, UniProt Q9KMA5, T26S;L27S;K28A;H30A;H31S;V32G;N33A;D34T;V35A;G36S;E37S); experiment: as above; settings: protein: recombinant; tags: C-terminal His6, uncleavable; chain copies: 2
HigA2Mut(2-13) = HigA2Mut(2-13) (Vibrio cholerae, UniProt Q9KMA5, N3S;R4A;D5T;L6A;F7S;A8G;E9A;L10T;S11A;A13S); experiment: as above; settings: protein: recombinant; tags: C-terminal His6, uncleavable; chain copies: 2
HigA2Shuff = HigA2Shuff (Vibrio cholerae, UniProt Q9KMA5, IDR sequence shuffled); experiment: as above; settings: protein: recombinant; tags: C-terminal His6, uncleavable; chain copies: 2

Work on “ATCTGTACGCTTGGTGCGTACACTT (double strand) [Opr25]” yielded a Kd [1] of 10 µM.

B1: Opr45 (dsDNA)
DNA 1: AATTCTTGCCATCTGTACGCTTGGTGCGTACACTTCCTATATGAA
DNA 2: TTCATATAGGAAGTGTACGCACCAAGCGTACAGATGGCAAGAATT
For B1, the Kd (HigA2 [2]) was 0.0251 ± 0.0052 µM, the binding result (HigA2IDR) was “no binding” and the Kd (HigA2ΔIDR [3]) was 0.4 ± 0.05 µM.

B2: HigA2 antitoxin from Vibrio cholerae (full-length, C-terminal histidine tag) (natural protein)
chain: MSNRDLFAELSSALVEAKQHSEGKLTLKTHHVNDVGELNISPDEIVSIREQFNMSRGVFARLLHTSSRTLENWEQGRSVPNGQAVTLLKLVQRHPETLSHIAEL
notes: Antitoxin HigA2 of the higBA2 toxin-antitoxin module, Vibrio cholerae; N-terminal disordered region (residues 2-36) and globular C-terminal HTH domain (residues 37-104); only residues 37-104 are seen in the crystal; The histidine tag is un-cleavable (pET21b, NdeI/XhoI); also called wild-type HigA2; full-length HigA2; not shown: histidine tag, C-terminal, kept
B2 was tested, and the “stoichiometry N” value [4] was 2.

B3: Opr17 (dsDNA)
DNA 1: GTACGCTTGGTGCGTAC
DNA 2: GTACGCACCAAGCGTAC
B3: binds (HigA2 [5]).

B4: Opr25 (dsDNA)
DNA 1: ATCTGTACGCTTGGTGCGTACACTT
DNA 2: AAGTGTACGCACCAAGCGTACAGAT
B4 showed a Kd (HigA2 [6]) of 0.015 ± 0.003 µM, a Kd (HigA2Mut(14-25)) of 5.1 ± 2.4 µM and a Kd (HigA2ΔIDR [7]) of 0.48 ± 0.16 µM. The binding result (HigA2Mut(26-37)) was “no binding”, the Kd (HigA2Mut(2-13)) was 0.39 ± 0.13 µM and the Kd (HigA2Shuff) was 37 ± 20 µM. For the same molecule, the Kd (HigA2 [2]) was 0.0138 ± 0.0058 µM.
